A value given as a limit tells only on which side of the number the result lay.

The target in test [1] is HIV-1 HXB2 gp41 (from the HXB2 gp160 gene), on single-round luciferase virus (HIV-1 (HXB2)) (UniProt P04578).
Test [2] has as its target HIV gp41 on HIV modified to contain a luciferase reporter gene (HIV, strain not stated).
The target of test [3] is gp160 (precursor protein to gp120/gp41) on CHO cells (HIV, strain not stated).
Test [4] concerns the target HIV-1 HXB2 gp41 (from the HXB2 gp160 gene), on single-round luciferase virus (HIV-1 (HXB2), UniProt P04578). The test is described as follows: cell-based or functional assay.

In the case of IQN17 (G572D) (designed binder), in test [1], the IC50 (nm), viral infectivity (HIV luciferase assay) worked out at 20000 nM.

With GCN4-pIQI (peptide), the inhibition of luciferase activity (viral fusion experiment) in test [2] is more than 10 µM.

Take IQN17 (designed binder): the IC50, inhibition of syncytia formation (cell/cell fusion, β-galactosidase) in test [3] is 20 to 80 nM. The molecule also registered an IC50, inhibition of luciferase activity (viral fusion experiment) in test [2] of 250 nM.

For the molecule Ac-KIEEIESKQKKIENEIARIKKLLQLTVWGIKQLQARIL-NH2 (designed binder) [IQ22N17], the “IC50 (nm), viral infectivity (HIV luciferase assay)” value (“IC50 (nm), viral infectivity” for short) in test [4] was approximately 1000 nM.

As to Ac-LLQLTVWGIKQLQARIL-NH2 [N17], in test [4], the “IC50 (nm), viral infectivity” value is approximately 10000 nM.

In the case of Ac-KQKKIENEIARIKKLLQLTVWGIKQLQARIL-NH2 (designed binder) [IQ15N17], the “IC50 (nm), viral infectivity” value in test [4] is approximately 10000 nM.

Regarding Ac-KIKKIENEIARIKKLLQLTVWGIKQLQARIL-NH2 (designed binder) [II15N17], the “IC50 (nm), viral infectivity” value in test [4] was approximately 3000 nM.

For the molecule Ac-RMKQIEDKIEEIESKQKKIENEIARIKKLLQLTVWGIKQLQARIL-NH2 (designed binder) [IQN17], in test [4], the “IC50 (nm), viral infectivity” value is approximately 180 nM.

With Ac-KIEEIESKIKKIENEIARIKKLLQLTVWGIKQLQARIL-NH2 (designed binder) [II22N17], the “IC50 (nm), viral infectivity” value in test [4] is approximately 170 nM.

B1: IQN23 version 2 (designed binder)
chain: Ac-RMKQIEDKIEEIESKQKKIENEIARIKKLIEAQQHLLQLTVWGIKQLQARIL-NH2
B1: the “IC50 (nm), viral infectivity” value in test [4] is approximately 30 nM.

Turning to Ac-IKKEIEAIKKEQEAIKKKIEAIEKLLQLTVWGIKQLQARIL-NH2 (designed binder) [IZN17], in test [4], the “IC50 (nm), viral infectivity” value worked out at 5.6 nM.
